Numbering of substitutions follows the chain as printed. Bounds are passed on as bounds.

The term Kd denotes the concentration at which binding is half-saturated. The koff is a measure of how fast the partners let go of each other. Read a low koff as slow dissociation. The kon is a measure of how fast the partners come together. Low readings indicate slow association, high ones fast association.

Assay [1] concerns the target T1, 重组SARS-CoV2核蛋白(NP) (SARS-CoV-2, UniProt P0DTC9 1-419). The assay is described as follows: double-antibody sandwich lateral-flow strip, paired with JS08.
For assay [2], the target named is T1, 重组SARS-CoV2核蛋白(NP).
In assay [3] the target is 重组SARS-CoV2核蛋白(NP) (SARS-CoV-2, UniProt P0DTC9 1-419). This is another data set of the same source.

B1: JS14 (antibody, V domains shown)
VH: EVQLLESGGGVVQPGRSLRLSCAASGFTFSSYGMHWVRQAPGKGLEWVAVIWYDGSNKYYADSVKGRFTISRDNSKNTLYLQMNSLRAEDTAVYYCARDGSGSYYWGSLDYWGQGTLVTVSS
VL: not shown
In the case of B1, in the assay with 重组SARS-CoV2核蛋白(NP) [1], the “检测限 (detection limit for NP)” value is less than 2 ng/mL. Also, in the assay with 重组SARS-CoV2核蛋白(NP) [2], binding was put at a Kd of 0.178 nM, the koff turned out to be 0.000221 s⁻¹ and the kon came to 1.24e+06 M⁻¹ s⁻¹.

B2: JS11 (antibody, V domains shown)
VH: EVQLLESGGGVVQPGRSLRLSCAASGFTFSSYGMHWVRQAPGKGLEWVAVIWYDGSNKYYADSVKGRFTISRDNSKNTLYLQMNSLRAEDTAVYYCVGPLMVRGVIIPWGQGTLVTVSS
VL: not shown
Consider B2, for which, in the assay with 重组SARS-CoV2核蛋白(NP) [2], the dissociation constant Kd stood at 0.292 nM, the dissociation rate constant (koff) was found to be 5.62e-05 s⁻¹ and the kon amounted to 193000 M⁻¹ s⁻¹.

B3: JS06 (antibody, V domains shown)
VH: EVQLLESGGGVVQPGRSLRLSCAASGFTFSSYGMHWVRQAPGKGLEWVAVIWYDGSNKYYADSVKGRFTISRDNSKNTLYLQMNSLRAEDTAVYYCARAAYGPYYGMDVWGQGTTVTVSS
VL: not shown
In the case of B3, in the assay with 重组SARS-CoV2核蛋白(NP) [3], binding was characterised by a dissociation constant (Kd) of 16.1 nM, the koff amounted to 0.00258 s⁻¹ and the kon turned out to be 161000 M⁻¹ s⁻¹.

B4: JS13 (antibody, V domains shown)
VH: QVQLVQSGAEVKKPGSSVKVSCKASGGTFSSYAISWVRQAPGQGLEWMGGIIPIFGTANYAQKFQGRVTITADESTSTAYMELSSLRSEDTAVYYCARGGWVICSSTSCYTKYSYYGMDVWGQGTTVTVSS
VL: QSVLTQPPSVSAAPGQKVTISCSGSSSNIGNNYVSWYQQLPGTAPKLLIYDNNKRPSGIPDRFSGSKSGTSATLGITGLQTGDEADYYCGTWDSSLIARLFGGGTKLTVL
With B4, the “检测限 (detection limit for NP)” value in the assay with 重组SARS-CoV2核蛋白(NP) [1] is less than 2 ng/mL. Besides, in the assay with 重组SARS-CoV2核蛋白(NP) [2], the affinity, expressed as Kd, was 0.12 nM; the koff was determined as 9.66e-05 s⁻¹; the kon was found to be 805000 M⁻¹ s⁻¹.

B5: JS08 (antibody, V domains shown)
VH: QVQLVQSGPGLVKPSETLSLTCTVSGGSISSYYWSWIRQPPGKGLEWIGNIYYSGSTDYNPSLKSRVTISVDTSKNQFSLRLSSVTAADTAVYYCAREQFSGGDYEGFDFWGQGTLVTVSS
VL: QSVLTQEPSVSGAPGQRVTISCTGSSSNIGAGYDVHWYQQLPGTAPKLLIYGNSNRPSGVPDRFSGSKSGTSASLAITGLQAEDEADYYCQSYDSSLSGWVFGGGTKLTVL
In the assay with 重组SARS-CoV2核蛋白(NP) [3], B5 came in with a Kd of 0.19 nM, an off-rate (koff) of 5.77e-06 s⁻¹ and an on-rate (kon) of 30300 M⁻¹ s⁻¹.

B6: JS01 (antibody, V domains shown)
VH: QVQLVESGAEVKKPGSSVKVSCKASGGTFSSYAISWVRQAPGQGLEWMGGIIPIFGTANYAQKFQGRVTITADESTSTAYMELSSLRSEDTAVYYCARGGWRSSGYHDYSYYGMDVWGQGTTVTVSS
VL: not shown
With B6, the “检测限 (detection limit for NP)” value with 重组SARS-CoV2核蛋白(NP) [1] is less than 2 ng/mL. Also, in the assay with 重组SARS-CoV2核蛋白(NP) [2], the Kd is 0.22 nM, the koff is 0.000479 s⁻¹ and the on-rate constant (kon) is 2.18e+06 M⁻¹ s⁻¹.

B7: JS05 (antibody, V domains shown)
VH: EVQLLESGGGVVQPGRSLRLSCAASGFIFSSYGMHWVRQAPGKGLEWVAVIWYDGSNKYYADSVKGRFTISRDNSKNTLYLQMNSLRAEDTAVYYCARDLRGPTGWTFDYWGQGTLVTVSS
VL: ENVLTQSPATLSLSPGERATLSCRASQSVSNYLAWYQQRPGQAPRLLIYDSSNRATGIPARFSGSGSGTDFTLTISSLEPEDFAVYYCQHRSNWKITFGQGTRLEIK
Regarding B7, the “检测限 (detection limit for NP)” value in the assay with 重组SARS-CoV2核蛋白(NP) [1] was less than 2 ng/mL. Moreover, in the assay with 重组SARS-CoV2核蛋白(NP) [2], the Kd turned out to be 0.409 nM, the koff amounted to 0.000243 s⁻¹ and the on-rate (kon) stood at 594000 M⁻¹ s⁻¹.

B8: JS12 (antibody, V domains shown)
VH: B1 VH
VL: B7 VL with N31S, R39K, D50G, S51A, H90Q, K95P, I96W, R103K, L104V
Turning to B8, in the assay with 重组SARS-CoV2核蛋白(NP) [1], the “检测限 (detection limit for NP)” value is less than 2 ng/mL. In the assay with 重组SARS-CoV2核蛋白(NP) [2], binding was characterised by a dissociation constant (Kd) of 0.15 nM, the koff is 7.33e-05 s⁻¹ and the on-rate constant (kon) is 488000 M⁻¹ s⁻¹.

The record behind these values is patent publication CN113004395A (JIANGSU PROVINCIAL CENTER FOR DISEASE CONTROL AND …, dated 2021).
